# Laboratory results reported in patent US20220332804A1 (CSL INNOVATION, published 2022).
# T1: human C2 M316A (human, UniProt P06681 21-752)
# T1 sequence: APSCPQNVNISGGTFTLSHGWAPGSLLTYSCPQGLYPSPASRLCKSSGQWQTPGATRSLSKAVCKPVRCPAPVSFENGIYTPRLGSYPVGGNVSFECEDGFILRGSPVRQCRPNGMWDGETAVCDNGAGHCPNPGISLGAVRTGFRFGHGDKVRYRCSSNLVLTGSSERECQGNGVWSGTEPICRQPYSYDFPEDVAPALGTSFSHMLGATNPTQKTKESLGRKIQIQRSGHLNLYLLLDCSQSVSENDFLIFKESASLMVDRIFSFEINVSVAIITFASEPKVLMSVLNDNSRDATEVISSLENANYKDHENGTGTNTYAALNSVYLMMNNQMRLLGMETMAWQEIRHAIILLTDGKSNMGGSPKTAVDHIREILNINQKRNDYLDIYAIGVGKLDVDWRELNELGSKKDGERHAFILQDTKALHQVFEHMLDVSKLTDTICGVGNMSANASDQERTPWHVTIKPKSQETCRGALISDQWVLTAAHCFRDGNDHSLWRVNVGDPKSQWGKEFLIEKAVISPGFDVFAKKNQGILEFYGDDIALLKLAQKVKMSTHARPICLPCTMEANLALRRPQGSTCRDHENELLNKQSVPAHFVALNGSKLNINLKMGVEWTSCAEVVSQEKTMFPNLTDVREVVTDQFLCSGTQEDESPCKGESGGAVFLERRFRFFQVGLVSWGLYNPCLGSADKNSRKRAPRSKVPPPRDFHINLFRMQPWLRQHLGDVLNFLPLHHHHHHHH
# T2: human C2 N325A (human, UniProt P06681 21-752)
# T2 sequence: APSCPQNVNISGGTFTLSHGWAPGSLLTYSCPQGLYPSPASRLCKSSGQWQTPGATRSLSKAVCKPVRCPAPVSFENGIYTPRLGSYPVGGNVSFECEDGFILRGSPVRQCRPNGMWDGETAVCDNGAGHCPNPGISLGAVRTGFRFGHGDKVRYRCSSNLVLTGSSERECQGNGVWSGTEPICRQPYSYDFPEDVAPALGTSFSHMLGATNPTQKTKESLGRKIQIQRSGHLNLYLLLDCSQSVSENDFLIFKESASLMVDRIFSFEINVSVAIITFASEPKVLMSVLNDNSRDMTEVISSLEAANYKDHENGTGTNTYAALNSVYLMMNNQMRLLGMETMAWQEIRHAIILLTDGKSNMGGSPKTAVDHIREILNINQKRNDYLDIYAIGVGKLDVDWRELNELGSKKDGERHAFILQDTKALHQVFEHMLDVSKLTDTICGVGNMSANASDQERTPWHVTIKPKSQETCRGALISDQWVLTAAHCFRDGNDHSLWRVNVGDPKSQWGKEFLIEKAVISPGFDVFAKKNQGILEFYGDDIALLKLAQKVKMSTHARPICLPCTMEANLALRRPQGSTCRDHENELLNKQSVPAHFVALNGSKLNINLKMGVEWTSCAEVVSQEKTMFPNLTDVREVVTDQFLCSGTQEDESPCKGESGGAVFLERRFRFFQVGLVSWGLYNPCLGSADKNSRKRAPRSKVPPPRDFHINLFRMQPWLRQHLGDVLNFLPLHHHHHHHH
# T3: human C2 S428A (human, UniProt P06681 21-752)
# T3 sequence: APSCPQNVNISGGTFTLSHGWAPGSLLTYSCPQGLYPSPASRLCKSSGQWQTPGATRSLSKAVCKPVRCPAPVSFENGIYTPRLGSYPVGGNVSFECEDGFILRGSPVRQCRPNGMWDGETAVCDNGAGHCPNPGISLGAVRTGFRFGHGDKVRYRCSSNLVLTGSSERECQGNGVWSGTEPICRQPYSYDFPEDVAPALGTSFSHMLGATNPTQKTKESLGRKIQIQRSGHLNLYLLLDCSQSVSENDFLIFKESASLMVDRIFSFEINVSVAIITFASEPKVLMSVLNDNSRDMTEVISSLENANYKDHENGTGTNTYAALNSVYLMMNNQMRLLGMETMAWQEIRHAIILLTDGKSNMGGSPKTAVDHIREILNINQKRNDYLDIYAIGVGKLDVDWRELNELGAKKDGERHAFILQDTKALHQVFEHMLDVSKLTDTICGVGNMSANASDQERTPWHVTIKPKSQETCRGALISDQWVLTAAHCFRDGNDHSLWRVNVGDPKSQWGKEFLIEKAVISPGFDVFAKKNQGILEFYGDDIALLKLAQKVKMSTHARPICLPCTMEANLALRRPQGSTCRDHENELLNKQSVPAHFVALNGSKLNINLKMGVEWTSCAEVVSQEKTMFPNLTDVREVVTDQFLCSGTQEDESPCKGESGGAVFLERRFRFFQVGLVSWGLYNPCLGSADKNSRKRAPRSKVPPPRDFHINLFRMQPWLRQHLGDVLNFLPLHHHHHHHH
# T4: human C2 I272A (human, UniProt P06681 21-752)
# T4 sequence: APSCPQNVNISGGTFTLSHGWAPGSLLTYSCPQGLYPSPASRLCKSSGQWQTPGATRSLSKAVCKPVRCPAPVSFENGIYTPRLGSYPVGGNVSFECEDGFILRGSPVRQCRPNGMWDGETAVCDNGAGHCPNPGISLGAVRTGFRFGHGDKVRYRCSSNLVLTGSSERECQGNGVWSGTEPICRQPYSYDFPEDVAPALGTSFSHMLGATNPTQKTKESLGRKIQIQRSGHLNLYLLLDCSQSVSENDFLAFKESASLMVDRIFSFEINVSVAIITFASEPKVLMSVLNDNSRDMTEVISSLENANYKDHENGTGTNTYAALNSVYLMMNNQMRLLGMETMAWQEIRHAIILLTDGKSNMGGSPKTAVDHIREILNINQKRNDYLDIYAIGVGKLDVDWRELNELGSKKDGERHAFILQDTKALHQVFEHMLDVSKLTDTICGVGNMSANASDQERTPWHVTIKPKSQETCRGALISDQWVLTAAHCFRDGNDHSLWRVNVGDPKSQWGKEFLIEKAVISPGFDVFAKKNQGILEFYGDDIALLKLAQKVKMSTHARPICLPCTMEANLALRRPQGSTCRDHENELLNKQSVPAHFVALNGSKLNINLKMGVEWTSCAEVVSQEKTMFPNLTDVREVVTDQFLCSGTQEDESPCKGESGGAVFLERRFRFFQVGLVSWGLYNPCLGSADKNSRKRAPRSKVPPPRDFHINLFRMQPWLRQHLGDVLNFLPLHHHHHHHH
# Tests used:
# Assay in all cases: SPR; KD relative to WT C2;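 further: biacore SPR at 37 °C, anti-C2 mAbs captured on an anti-human IgG chip, alanine or serine C2 surface mutants tested, KD from 1:1 fit compared with wild-type C2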
# human C2 M316A = molecular target: T1, human C2 M316A
# human C2 N325A = molecular target: T2, human C2 N325A
# human C2 S428A = molecular target: T3, human C2 S428A
# human C2 I272A = molecular target: T4, human C2 I272A
binder,measurement,setting,value
"RF16-214 (antibody, V domains shown) VH: EVQLLESGGGLVQPGGSLRLSCAASGFTFSWYQMMWVRQAPGKGLEWVSRIYPSGGGTAYADSVKGRFTISRDNSKNTLYLQMNSLRAEDTAVYYCARDAGYGDNWGQGTLVTVSS VL: QSALTQPPSVSVSPGQTASITCSGDKLGEKYASWYQQKAGQSPVMVIYQDRKRPSGIPERFSGSNSGNTATLTISGTQAMDEADYYCQAWDTRAVVFGGGTKLTVLG",Fold diff,human C2 M316A,1 fold
same,Fold diff,human C2 N325A,11 fold
same,Fold diff,human C2 S428A,2 fold
same,Fold diff,human C2 I272A,15 fold
